Results published in publication PMC2581932 (Cell, 2008).

B1: Pyrococcus furiosus HerA (enzyme, UniProt Q8U1P0 1-551, looked up)
chain: MEEFVGIVRGEASFTSYEFSINPSANVSFGEFVVTKNRDGDLVLGTVRHVKNVNWLLSSVKSNFNSLALDIEEYGESLGENEEVVATVRILGKIEGNELVPNRVPIRNGEYVYKASDDLLQMIYGNDGIEIGTLLLRPNVRIKLDVNELVSRHFAVLAVTGAGKSNAVAVIIKGIVEDVGGTVVVLDPHGDYVNLRLPETGIDLVNIIDGKIRIEDLDPEELADLIGISSSAQIQRHFLSLAWETVKHKNQSLGGESLLEALLDLLNEWISRKTIKYWSEKEGRMKSEDLKSERIETIRGIIFRIRRFLRNYGNIVTSENLVAAIKPGMVNVIDLSPLDENQMKVVVGKFLEAVFEKRVEYEMARKRFEKETSKKKRDEYEEIMTEIESKYPALAYPILVIVEEAHIFAPQGEENDAMRIMGRIAREGRKFGVGLGVVSQRPSKLNEDILSQMNTKIILRIVNPRDQDYVLKASEQLSKDLMDDIAGLGKGEAVIVGQAIKLPALVRIYNFKELRGKAGTGQYGGEDIGILDRWNKMKRNMVNSLDIDIDF

Experiments:
Pyrococcus furiosus HerA = target: B1; assay: SEC
SEC = target: the molecule itself; assay: SEC

| stoichiometry N (Pyrococcus furiosus HerA) | Binder | binding result (SEC) |
| --- | --- | --- |
| 1 to 3 NurA monomers per HerA hexamer | Pyrococcus furiosus NurA (enzyme, UniProt Q8U1N8 1-451, looked up) MRLLSKQSIERITKILLDELENVRENEQIRNIINSWKPLPSPEKSSIYAVDGSRSVSRLSGTVIYFLSALAVGSGKQLRLSYANAIKSNYGTSDQIVRMQMETLENMLGYLAYRKLEGEKRAILMDGTLTGSLVRPPVYPEDIRSLNVMRALIGESDFENLLNEFLEKLRDHYRKVEEHLEKNGNYDSPILTDNVVEKLRKKYIDTKVIAYGSGKVKVKIPRKALGYSPRVIPIEVLESSRGKSVDELLQELDEEKVELYLGKDDIYDALHMTLSYIEYLYSIDKLLEVKNLAYIAKSFYTKTLARTLGVEIVDTALLDAVIRTLIGHEKEGYLEIEHAVVPPKWSFPDFLLSKFRNIEKLIDKGIHLAYVRFEQGDVIYMLQSTTNIEKILPLILHHKAGGYLRPLQLAHHGVKISYKEARHTLEALINALRNRDPALKIFVKYGRSPLE | – |
| – | B1 | binds |
